These results are taken from publication PMC10716038, “Talin and kindlin use integrin tail allostery and direct binding to activate integrins” (Nature Structural & Molecular Biology, 2023).

No end group written: not given here.

Common to all, as to assay: MST; unlabelled protein titrated to 50-200 nM ATTO 488-labelled β-CT peptide, no third protein; 20 mM Tris pH 7.5, 200 mM NaCl, 1 mM TCEP, 0.05% Tween-20; Kd of individual titrations (in S0002 mean and sd, n = 2)
Common to all, as to conditions: both partners purified

Experiment [1] has as its target T1, THD1 K403A (UniProt P26039 1-405, K403A).
T1 construct: talin-1 (TLN1) head domain, residues 1-405, K403A; source: E. coli (DE3) Rosetta 2, purified (IMAC, SEC); not shown: His10-SUMO, N-terminal, cleaved

The target in experiment [2] is T2, THD1 K403E (UniProt P26039 1-405, K403E).
T2 construct: talin-1 (TLN1) head domain, residues 1-405, K403E; source: E. coli (DE3) Rosetta 2, purified (IMAC, SEC); not shown: His10-SUMO, N-terminal, cleaved

The target in experiment [3] is T3, THD1 K404A (UniProt P26039 1-405, K404A).
T3 construct: talin-1 (TLN1) head domain, residues 1-405, K404A; source: E. coli (DE3) Rosetta 2, purified (IMAC, SEC); not shown: His10-SUMO, N-terminal, cleaved

Experiment [4] addresses T4, THD1 KKAA (UniProt P26039 1-405, KKAA (KK402/403)).
T4 construct: the sheet prints only 'KKAA'; source: E. coli (DE3) Rosetta 2, purified (IMAC, SEC); not shown: His10-SUMO, N-terminal, cleaved

Experiment [5] addresses T5, THD1 Δ401-405 (UniProt P26039 1-405, Δ401-405).
T5 construct: source: E. coli (DE3) Rosetta 2, purified (IMAC, SEC); not shown: His10-SUMO, N-terminal, cleaved

In experiment [6] the target is T6, THD1 Y395A (UniProt P26039 1-405, Y395A).
T6 construct: talin-1 (TLN1) head domain, residues 1-405, Y395A; source: E. coli (DE3) Rosetta 2, purified (IMAC, SEC); not shown: His10-SUMO, N-terminal, cleaved

In experiment [7] the target is T7, THD1 I396A (UniProt P26039 1-405, I396A).
T7 construct: talin-1 (TLN1) head domain, residues 1-405, I396A; source: E. coli (DE3) Rosetta 2, purified (IMAC, SEC); not shown: His10-SUMO, N-terminal, cleaved

Experiment [8] deals with T8, THD1 I398A (UniProt P26039 1-405, I398A).
T8 construct: talin-1 (TLN1) head domain, residues 1-405, I398A; source: E. coli (DE3) Rosetta 2, purified (IMAC, SEC); not shown: His10-SUMO, N-terminal, cleaved

Experiment [9] addresses T9, THD1 I399A (UniProt P26039 1-405, I399A).
T9 construct: talin-1 (TLN1) head domain, residues 1-405, I399A; source: E. coli (DE3) Rosetta 2, purified (IMAC, SEC); not shown: His10-SUMO, N-terminal, cleaved

Experiment [10] addresses T10, THD1 L400A (UniProt P26039 1-405, L400A).
T10 construct: talin-1 (TLN1) head domain, residues 1-405, L400A; source: E. coli (DE3) Rosetta 2, purified (IMAC, SEC); not shown: His10-SUMO, N-terminal, cleaved

The target of experiment [11] is T11, THD1 K401A (UniProt P26039 1-405, K401A).
T11 construct: talin-1 (TLN1) head domain, residues 1-405, K401A; source: E. coli (DE3) Rosetta 2, purified (IMAC, SEC); not shown: His10-SUMO, N-terminal, cleaved
T11 sequence (P26039 1-405 K401A): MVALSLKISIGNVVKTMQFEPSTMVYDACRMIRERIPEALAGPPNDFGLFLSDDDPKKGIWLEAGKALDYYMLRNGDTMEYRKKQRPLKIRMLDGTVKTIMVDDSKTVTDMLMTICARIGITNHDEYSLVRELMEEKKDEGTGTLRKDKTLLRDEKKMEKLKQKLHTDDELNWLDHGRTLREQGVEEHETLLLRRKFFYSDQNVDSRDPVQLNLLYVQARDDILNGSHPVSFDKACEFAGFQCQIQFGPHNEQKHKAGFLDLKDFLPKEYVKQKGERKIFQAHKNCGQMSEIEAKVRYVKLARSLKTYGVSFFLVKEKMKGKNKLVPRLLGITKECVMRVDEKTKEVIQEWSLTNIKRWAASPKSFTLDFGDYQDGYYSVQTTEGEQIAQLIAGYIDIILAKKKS

T2 sequence (P26039 1-405 K403E): as the sequence (P26039 1-405 K401A) above, with A401K, K403E counted along it
T8 sequence (P26039 1-405 I398A): as the sequence (P26039 1-405 K401A) above, with I398A, A401K counted along it
T10 sequence (P26039 1-405 L400A): as the sequence (P26039 1-405 K401A) above, with L400A, A401K counted along it
T1 sequence (P26039 1-405 K403A): as the sequence (P26039 1-405 K401A) above, with A401K, K403A counted along it
T6 sequence (P26039 1-405 Y395A): as the sequence (P26039 1-405 K401A) above, with Y395A, A401K counted along it
T4 sequence (P26039 other isoform, or with tags, fused parts or gaps KKAA (KK402/403) | KKAA (KK402/403)): as the sequence (P26039 1-405 K401A) above, with A401K, K402A, K403A counted along it
T9 sequence (P26039 1-405 I399A): as the sequence (P26039 1-405 K401A) above, with I399A, A401K counted along it
T7 sequence (P26039 1-405 I396A): as the sequence (P26039 1-405 K401A) above, with I396A, A401K counted along it
T3 sequence (P26039 1-405 K404A): as the sequence (P26039 1-405 K401A) above, with A401K, K404A counted along it
T5 sequence (P26039 1-400, stated change not applied): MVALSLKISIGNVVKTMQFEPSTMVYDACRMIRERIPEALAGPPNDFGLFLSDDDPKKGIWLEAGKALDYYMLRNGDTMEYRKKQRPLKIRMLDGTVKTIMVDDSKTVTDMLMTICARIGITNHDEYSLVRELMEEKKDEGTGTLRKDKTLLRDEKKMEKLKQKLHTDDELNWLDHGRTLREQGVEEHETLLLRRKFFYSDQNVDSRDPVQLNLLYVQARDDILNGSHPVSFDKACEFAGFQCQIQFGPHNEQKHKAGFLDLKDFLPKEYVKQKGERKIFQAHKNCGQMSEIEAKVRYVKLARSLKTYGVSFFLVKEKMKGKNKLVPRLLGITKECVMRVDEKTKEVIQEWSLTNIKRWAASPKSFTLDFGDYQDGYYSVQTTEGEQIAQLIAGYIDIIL

B1: ATTO 488-labeled integrin β3 cytoplasmic tail (488–β3-CT) (peptide, UniProt O54890 741-787, looked up)
peptide: {ATTO 488}-KLLITIHDRKEFAKFEEERARAKWDTANNPLYKEATSTFTNITYRGT
notes: integrin β3 cytoplasmic tail (β3-CT); source: synthetic peptide (MPIB Core Facility)
The Kd is the concentration at which binding is half-saturated. Read a high Kd as weaker binding. As for B1, the Kd in experiment [1] was 68.1 µM; in [2], 60.9 µM; in [3], 90.1 µM; in experiment [4], 62.1 µM; in experiment [5], 250 µM; in experiment [6] it was 27.7 µM. Besides, the Kd was determined as 579 µM in experiment [7]; 141 µM in experiment [8]; 55.2 µM in experiment [9]; 190 µM in [10]; 82.5 µM in [11].
